From patent publication US20230331817A1 (The Regents of the University of California, priority 2020, published 2023)

Tests used:
[1] = human, in vivo; cited from earlier work
[2] = tested on: primary human dermal skin fibroblasts; test: Resazurin reduction (alamarBlue) viability assay, skin fibroblasts; type: cell-based
Procedure: (§1) Resazurin reduction assay (Fisher Scientific) was used to evaluate the potential cytotoxicity of antifibrinolytic agents toward primary human endothelial cells and skin fibroblasts. Phosphate buffer that was used to dissolve the samples was included as negative control. The assay is based on reduction of the non-fluorescent dye resazurin, to the highly fluorescent resorufin by viable cells. […] Briefly, cells in 96-well cell culture plates were treated with different concentrations of antifibrinolytic compounds (as described above). After 24 hours resazurin reagent was added to each well and the plates were incubated at 37° C. for 4 hours. Fluorescence was measured by the FLUOstar Omega Microplate Reader (BMG Labtech) using an excitation wavelength of 544 nm and an emission wavelength of 590 nm. Each assay was done in duplicate, with three replicates each. The viability was evaluated based on comparison with untreated cells.

[3] = tested on: primary human dermal skin fibroblasts; details: 24 hours; 30 μM KD1TM, 30 μM BPTI, 60 mM EACA, 30 mM TXA
Text: (§2) Primary human pooled umbilical vein endothelial cells (HUVEC) were obtained from ATCC. The cells were maintained in Vascular Cell Basal Medium (ATCC), supplemented with the Endothelial Cell Growth Kit-BBE (ATCC) and Penicillin-Streptomycin-Amphotericin B (ATCC). Primary human dermal skin fibroblasts were obtained from LONZA and maintained in Fibroblast Basal Medium (FBMTM, LONZA), supplemented with a cocktail of growth factors, fetal bovine serum and antibiotics (FGMTM-2 SingleQuots™, LONZA). All cells were maintained in a humidified 5% C02 atmosphere at 37° C. and were passaged once they reached 80% confluence. All experiments were performed with cells in the logarithmic growth phase.
(§3) For toxicity studies, cells were seeded into 96-well or 24-well cell culture plates at 3,500 cells/cm2 and were used for experiments once they reached 80% confluence.
(§4) Cell toxicity and cell death was evaluated with the CellTox™ Green Cytotoxicity Assay (Promega). This assay measures changes in membrane integrity that occur as a result of cell death. The dye used in the system is excluded from viable cells but binds to DNA in compromised cells, which results in a fluorescent signal. We measured cell death in HUVEC and primary fibroblasts treated with antifibrinolytic agents at 4 concentrations (as indicated above) with triplicates per concentration in 24-well plates after 24 hours of exposure. Hoechst (Thermo Fisher Scientific) was used to stain all nuclei. Images of cells were captured using an inverted microscope (Nicon; Edipse T2000 TE). Green fluorescent cells (FITC filter) and Hoechst stained cells (DAPI filter) were counted using Image J software.

HUVEC [4] = details: 24 hours; 30 μM KD1TM, 30 μM BPTI, 60 mM EACA, 30 mM TXA
Text: as §2, §3, §4

[5] = tested on: plasmin induced lysis of clot formed in whole blood; test: Thromboelastography, plasmin induced clot lysis in whole blood; type: biochemical, human; details: for G / LY30 / LY60 / MA: NHB + […] plasmin
Procedure: Plasmin and CaCl2) were added last to initiate simultaneous clotting and fibrinolysis. […] The thromboelastograph was calibrated each day and each inhibitor concentration was tested in duplicate. TEG Analytical Software (version 4.2.2; Haemonetics Corporation, Braintree, MA) was used to calculate the time to clot initiation (R), maximal clot strength (maximal amplitude (MA), which was directly related to the shear elastic modulus strength, G), and percent lysis 60 minutes after MA (LY60) (42).

HUVEC [6] = type: cell-based, human
Procedure: as §1

human plasmin [7] = molecular target: T1, human plasmin (human, UniProt P00747 97-810); test: residual activity of 3 nM plasmin (percent fractional activity by the legend; the axis is labelled % Pm Inhibition), substrate S-2251 [A]
T1 construct: Plasmin is a two-chain enzyme derived from plasminogen; also called Pm

human plasmin [8] = molecular target: T1, human plasmin; test: cell-based or functional assay
human plasmin [9] = molecular target: T1, human plasmin; test: amidolytic inhibition of 3 nM plasmin, tight-binding equation
Procedure: All reactions were carried out in TBS, pH 7.5 (50 mM Tris-HCL, pH 7.5, containing 100 mM NaCl), containing 0.1 mg bovine serum albumin/ml (TBS/BSA) and 2 mM Ca2+(TBS/BSA/Ca2+, pH 7.5). […] The inhibition constant, K* was determined using the nonlinear regression data analysis program Grafit.

T1 sequence (P00747 97-810 limits assumed): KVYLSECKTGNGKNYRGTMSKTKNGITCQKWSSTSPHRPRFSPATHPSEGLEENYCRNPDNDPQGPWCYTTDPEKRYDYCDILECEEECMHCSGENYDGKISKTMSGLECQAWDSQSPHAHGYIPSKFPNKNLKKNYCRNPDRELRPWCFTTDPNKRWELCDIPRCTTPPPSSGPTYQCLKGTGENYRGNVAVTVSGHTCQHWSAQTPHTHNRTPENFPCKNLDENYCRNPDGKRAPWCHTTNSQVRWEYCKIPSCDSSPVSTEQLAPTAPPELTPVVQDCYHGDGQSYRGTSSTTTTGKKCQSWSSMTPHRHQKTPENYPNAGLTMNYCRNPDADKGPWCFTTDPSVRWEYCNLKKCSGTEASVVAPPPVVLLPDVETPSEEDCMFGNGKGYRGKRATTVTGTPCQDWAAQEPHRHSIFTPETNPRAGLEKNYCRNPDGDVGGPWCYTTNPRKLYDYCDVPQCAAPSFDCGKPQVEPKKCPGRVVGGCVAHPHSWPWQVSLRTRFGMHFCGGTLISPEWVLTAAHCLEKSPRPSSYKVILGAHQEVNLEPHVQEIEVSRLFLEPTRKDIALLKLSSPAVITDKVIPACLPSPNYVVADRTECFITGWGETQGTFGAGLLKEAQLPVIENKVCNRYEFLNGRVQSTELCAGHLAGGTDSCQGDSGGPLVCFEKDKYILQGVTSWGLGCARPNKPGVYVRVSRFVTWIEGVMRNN

In the case of Ecallantide, the half-life [1] is listed as roughly 2 h.

For `NCCCCCC(=O)O` [EACA, ε-aminocaproic acid], the “Fibroblast cell viability (FIG. 5)” value [2] was “not significantly different from the untreated cells”, the “Fibroblasts cytotoxicity, CellTox green (FIG. 8)” value [3] was “significant toxicity” and the “HUVEC cytotoxicity, CellTox green (FIG. 7)” value (HUVEC [4]) was “only observed in skin fibroblasts”. For the same molecule, the G [5] was 2388.0 ± 49.6 dyn/cm^2, the G ([5]; inhibitor 200 μM) was 153.25 ± 9.8 dyn/cm^2 and the LY30 ([5]; inhibitor 200 μM) was 0%. For the same molecule, the LY60 ([5]; inhibitor 200 μM) was 0%, the MA ([5]; inhibitor 200 μM) was 3.20 ± 0.71 mm and the G ([5]; inhibitor 500 μM) was 747.75 ± 14.8 dyn/cm^2. It also gave an LY30 ([5]; inhibitor 500 μM) of 0%, an LY60 ([5]; inhibitor 500 μM) of 0% and an MA ([5]; inhibitor 500 μM) of 13.15 ± 0.64 mm. The G ([5]; inhibitor 1000 μM) was 1070.1 ± 35.0 dyn/cm^2, the LY30 ([5]; inhibitor 1000 μM) was 0% and the LY60 ([5]; inhibitor 1000 μM) was 16.8 ± 0.35%. It also gave an MA ([5]; inhibitor 1000 μM) of 16.40 ± 0.28 mm, an LY30 ([5]; inhibitor 3000 μM) of 0% and an LY60 ([5]; inhibitor 3000 μM) of 0.6 ± 0.04%. For the same molecule, the MA ([5]; inhibitor 3000 μM) was 32.60 ± 0.71 mm, the “G restored, relative to blood without plasmin” value ([5]; […] plasmin, 3 mM EACA) was roughly 50% and the “MA restored, relative to blood without plasmin” value ([5]; […] plasmin, 3 mM EACA) was roughly 67%. The “HUVEC viability (FIG. 4)” value (HUVEC [6]) was “not significantly different from the untreated cells”.

B1: KD1-WT (other)
chain: DAAQEPTGNNAEICLLPLDYGPCRALLLRYYYDRYTQSCRQFLYGGCEGNANNFYTWEACDDACWRIEKVPKV
notes: also called Wild-type KD1; E. coli expressed KD1-WT (IIa cleavage site); not shown: N-terminal residues left from the IIa (thrombin) cleavage site
In the case of B1, the “IC50 (read off the curve)” value (human plasmin [7]) is reported as roughly 9 nM, the “TEG G, 1 µM inhibitor, whole blood + 1.5 µM plasmin” value (human plasmin [8]) is reported as 79 dyn/cm^2 and the “TEG G, 2 µM inhibitor, whole blood + 1.5 µM plasmin” value (human plasmin [8]) is reported as 108 dyn/cm^2. For the same molecule, the “TEG G, 3 µM inhibitor, whole blood + 1.5 µM plasmin” value (human plasmin [8]) was 180 dyn/cm^2, the “TEG G, 5 µM inhibitor, whole blood + 1.5 µM plasmin” value (human plasmin [8]) was 818 dyn/cm^2 and the “TEG G, 7.5 µM inhibitor, whole blood + 1.5 µM plasmin” value (human plasmin [8]) was 820 dyn/cm^2. The “TEG LY30, 1 µM inhibitor, whole blood + 1.5 µM plasmin” value (human plasmin [8]) was 100%, the “TEG LY30, 2 µM inhibitor, whole blood + 1.5 µM plasmin” value (human plasmin [8]) was 100% and the “TEG LY30, 3 µM inhibitor, whole blood + 1.5 µM plasmin” value (human plasmin [8]) was 100%. The “TEG LY30, 5 µM inhibitor, whole blood + 1.5 µM plasmin” value (human plasmin [8]) was 6.5%, the “TEG LY30, 7.5 µM inhibitor, whole blood + 1.5 µM plasmin” value (human plasmin [8]) was 0% and the “TEG LY60, 1 µM inhibitor, whole blood + 1.5 µM plasmin” value (human plasmin [8]) was 100%. The “TEG LY60, 2 µM inhibitor, whole blood + 1.5 µM plasmin” value (human plasmin [8]) was 100%, the “TEG LY60, 3 µM inhibitor, whole blood + 1.5 µM plasmin” value (human plasmin [8]) was 100% and the “TEG LY60, 5 µM inhibitor, whole blood + 1.5 µM plasmin” value (human plasmin [8]) was 22.4%. The “TEG LY60, 7.5 µM inhibitor, whole blood + 1.5 µM plasmin” value (human plasmin [8]) was 0%, the “TEG MA, 1 µM inhibitor, whole blood + 1.5 µM plasmin” value (human plasmin [8]) was 1.45 mm and the “TEG MA, 2 µM inhibitor, whole blood + 1.5 µM plasmin” value (human plasmin [8]) was 2.23 mm. The “TEG MA, 3 µM inhibitor, whole blood + 1.5 µM plasmin” value (human plasmin [8]) was 3.49 mm, the “TEG MA, 5 µM inhibitor, whole blood + 1.5 µM plasmin” value (human plasmin [8]) was 13.9 mm and the “TEG MA, 7.5 µM inhibitor, whole blood + 1.5 µM plasmin” value (human plasmin [8]) was 11.7 mm. It also gave a Ki (human plasmin [9]) of 6 nM.

B2: KD1-Y11T/L17R-KT (E. Coli) (designed binder)
chain: MGSSHHHHHHSSGHIDDDDKNAEICLLPLDTGPCRARLLRYYYDRYTQSCRQFLYGGCEGNANNFYTWEACDDACWRIEK
notes: also called KD1DM; E. coli expressed KD1-Y11T/L17R-KT
For B2, the “IC50 (read off the curve)” value (human plasmin [7]) was 2 to 3 nM and the Ki (human plasmin [9]) was 0.59 nM.
